The record followed here is US20210095019A1 (I MAB, published 2021).

The target of assay [1] is primary human AML cells (CD47 on PBMCs of AML patient AML-PB003F) (human) (UniProt Q08722).
Assay [2] deals with human red blood cells (CD47 on RBC) (human) (UniProt Q08722). Put plainly: flow cytometry on human RBCs, Donor 1, antibody 10 ug/mL. (In general: Flow cytometry measures light scatter and fluorescence of single cells or particles in a stream.)
The target is the same in assay [3]. Put plainly: flow cytometry on human RBCs, Donor 2, antibody 10 ug/mL.
Assay [4] addresses primary human AML cells (CD47 on PBMCs of AML patient AML-PB003F) (human) (UniProt Q08722). The experiment in a line: flow cytometry on primary AML cells (AML-PB003F); concentration not given.
The target is the same in assay [5]. The source holds these as a separate data set.
Assay [6] addresses human CD47 on Raji cells (human) (UniProt Q08722). The experiment in a line: flow cytometry on Raji cells, APC anti-human Fc.
The target of assay [7] is human red blood cells (CD47 on RBC) (human) (UniProt Q08722). The experiment in a line: flow cytometry on human RBCs, APC secondary antibody.
For assay [8], the target named is Biotinylated CD47 protein (Acrobiosystems) (human) (UniProt Q08722). The experiment in a line: ELISA on coated biotinylated CD47 protein (1 ug/mL), anti-human Fc HRP. (In general: ELISA stands for enzyme-linked immunosorbent assay.)
The target in assay [9] is Recombinant human CD47/mouse Fc fusion protein (Acrobiosystems) (human) (UniProt Q08722). Put plainly: ELISA on coated CD47/mouse Fc fusion protein (1 ug/ml), anti-human Fc HRP.
For assay [10], the target named is Recombinant human CD47-Fc fusion protein (Acrobiosystems) (human) (UniProt Q08722). The experiment in a line: blocking ELISA: SIRPa-His (1 ug/mL) binding to coated CD47-Fc, anti-His HRP.
For assay [11], the target named is human platelets (CD47 on CD61-positive platelets) (human) (UniProt Q08722). Put plainly: flow cytometry on human whole blood, gated on CD61+ platelets, antibody 10 ug/mL.
The target of assay [12] is T1, Biotinylated CD47 protein (Acrobiosystems) (human, UniProt Q08722 19-139, biotinylated (site not stated)).
T1 construct: extracellular domain; Bought reagent; also called monomeric CD47-ECD; biotinylated human CD47-ECD protein
The experiment in a line: ELISA on coated biotinylated CD47 protein (1 ug/mL), anti-human Fc HRP. As for the experimental part:
After coating of antigen, the wells were blocked with PBS/0.05% Tween (PBST) with 1% BSA for 1 hour at RT. […] Between all incubation steps, the wells of the plate were washed with PBST three times. Fluorescence was measured in a TECAN Spectrafluor plate reader.

Like-named read-outs stand apart in the source and are kept apart here.

Molecule IgG (antibody) registered a phagocytosis: percent of CFSE+ AML cells among CD14+ macrophages in assay [1] of 27%. Besides, the Binding (percent of RBC in the gate) is 0.079% in assay [2] and 0.018% in assay [3]. In addition, the AML Binding (percent of cells in the gate) in [4] was found to be 27.6%.
Broadly, the EC50 (read off the curve) is the concentration giving half of the maximal effect. In turn, “Reference antibody 2A1 (produced according to the sequence of CC-90002)” came in with a phagocytosis: percent of CFSE+ AML cells among CD14+ macrophages in [5] of 36.8%. For the same molecule, the EC50 (read off the curve) in assay [6] was determined as 0.1 µg/mL; in assay [7], 0.06 µg/mL; in assay [8] it was 0.03 µg/mL; in [9], 0.006 µg/mL. In addition, the AML Binding (percent of cells in the gate) in assay [4] came out at 75.1%. For the same molecule, the IC50 (read off the curve) in [10] turned out to be 0.2 µg/mL. In addition, in assay [11], the Binding (percent of CD61+ platelets in the gate) was 0.41%.

B1: CD47 antibody 1F8 (antibody, V domains shown)
VH: KVQLVESGGGLVKPGGSLRLSCAASGFTFSNAWMNWVRQAPGKGLEWVGRIKRKTDGETTDYAAPVKGRFSISRDDSKNTLYLQMNSLKTEDTAVYYCAGSNRAFDIWGQGTMVTVSA
VL: DIVMTQSPDSLAVSLGERATINCKSSQSVLYSSNNRNYLAWYQQKPGQPPKLLINQASTRASGVPDRFSGSGSGTEFTLIISSLHAEDVAIYYCQQYYTPPLAFGGGTKLEIK
Consider B1, for which the Binding (percent of RBC in the gate) in assay [2] is 0.065%; in [3] it was 0.076%. Also, the “EC50 (read off the curve)” value in assay [12] was around 0.008 µg/mL. This molecule had a Binding (percent of CD61+ platelets in the gate) in [11] of 0.77%.
